B1: GRG23: EPSP synthase (SEQ ID NO:14) isolated from a bacterial strain exhibiting strong glyphosate resistance (protein, listed as Arthrobacter globiformis)
chain: MALERGQHGRSRRLFGASLERITMETDRLVIPGSKSITNRALLLAAAAKGTSVLVRPLVSADTSAFKTAIQALGANVSADGDNWVVEGLGQAPHLDADIWCEDAGTVARFLPPFVAAGQGKFTVDGSEQLRRRPLRPLVDGIRHLGARVSSEQLPLTIEASGLAGGEYEIEAHQSSQFASGLIMAAPYARQGLRVRIPNPVSQPYLTMTLRMMRDFGLETSTDGATVSVPPGRYTARRYEIEPDASTASYFAAASAVSGRSFEFQGLGTDSIQGDTSFFNVLGRLGAEVHWAPNSVTISGPERLNGDIEVDMGEISDTFMTLAAIAPLADGPITITNIGHARLKESDRISAMETNLRTLGVQTDVGHDWMRIYPSTPHGGRVNCHRDHRIAMAFSILGLRVDGITLDDPQCVGKTFPGFFDYLGRLFPEKALTLPG
modifications: VARIANT (0)...(0) Strain ATX21308
B2: GRG1: EPSP synthase (SEQ ID NO:2) that confers glyphosate resistance, from U.S. application 10/739,610 (protein, listed as Enterobacteriaceae sp.)
chain: VKVTIQPGDLTGIIQSPASKSSMQRACAAALVAKGISEIINPGHSNDDKAARDIVSRLGARLEDQPDGSLQITSEGVKPVAPFIDCGESGLSIRMFTPIVALSKEEVTIKGSGSLVTRPMDFFDEILPHLGVKVKSNQGKLPLVIQGPLKPADVTVDGSLSSQFLTGLLLAYAAADASDVAIKVTNLKSRPYIDLTLDVMKRFGLKTPENRNYEEFYFKAGNVYDETKMQRYTVEGDWSGGAFLLVAGAIAGPITVRGLDIASTQADKAIVQALMSANAGIAIDAKEIKLHPADLNAFEFDATDCPDLFPPLVALASYCKGETKIKGVSRLAHKESDRGLTLQDEFGKMGVEIHLEGDLMRVIGGKGVKGAEVSSRHDHRIAMACAVAALKAVGETTIEHAEAVNKSYPDFYSDLKQLGGVVSLNHQFNFS
B3: grg20: EPSP synthase of Sulfolobus solfataricus (SEQ ID NO:12), expressed from plasmid pAX716 (protein, listed as Solfolobus solfataricus)
chain: MIVKIYPSKISGIIKAPQSKSLAIRLIFLSLFTRVYLHNLVLSEDVIDAIKSVRALGVKVKNNSEFIPPEKLEIKERFIKLKGSATTLRMLIPILAAIGGEVTIDADESLRRRPLNRIVQALSNYGISFSSYSLPLTITGKLSSNEIKISGDESSQYISGLIYALHILNGGSIEILPPISSKSYILLTIDLFKRFGSDVKFYGSKIHVNPNNLVEFQGEVAGDYGLASFYALSALVSGGGITITNLWEPKEYFGDHSIVKIFSEMGASSEYKDGRWFVKAKDKYSPIKIDIDDAPDLAMTIAGLSAIAEGTSEIIGIERLRIKESDRIESIRKILGLYGVGSEVKYNSILIFGINKGMLNSPVTDCLNDHRVAMMSSALALVNGGVITSAECVGKSNPNYWQDLLSLNAKISIE
B4: grg10: EPSP synthase of Clostridium acetobutylicum (SEQ ID NO:6), expressed from plasmid pAX714 (protein, listed as Clostridium acetobutylicum)
chain: MNCVKINPCCLKGDIKIPPSKSLGHRAIICAALSEEESTIENISYSKDIKATCIGMSKLGALIIEDAKDNSTLKIKKQKLVSKEKVYIDCSESGSTVRFLIPISLIEERNVVFDGQGKLSYRPLDSYFNIFDEKEIAYSHPEGKVLPLQIKGRLKAGMFNLPGNISSQFISGLMFSLPFLEGDSIINITTNLESVGYVDMTIDMLKKFGIEIENKAYKSFFIKGNQKCKGTKYKVEGDFSQAAFWLSAGILNGNINCKDLNISSLQGDKVILDILKKMGGAIDEKSFSSKKSHTHGIVIDASQCPDLVPILSVVAALSEGTTKIVNAARLRIKESDRLKAMATELNKLGAEVVELEDGLLIEGKEKLKGGEVESWNDHRIAMALGIAALRCEESVTINGSECVSKSYPQFWSDLKQLGGDVHEWSLGE
B5: grg22: EPSP synthase of Methanopyrus kandleri (SEQ ID NO:10), synthetic gene in plasmid pAX724 (protein, listed as Methanopyrus kanleri)
chain: MKRVELEGIPEVRGTVCPPPSKSGSHRALIAASLCDGSTELWNVLDAEDVRATLRLCRMLGAEVDVDGEERLEATVSGFGDSPRAPEDVVDCGNSGTTLRLGCGLAALVEGTTILTGDDSLRSRPVGDLLAALRSLGVDARGRVVRGEEYPPVVISGRPLRERVAVYGDVSSQFVSALLFLGAGLGALRVDVVGDLRSRPYVDMTVETLERFGVSVVREGSSFEVEGRPRSPGKLRVENDWSSAGYFVALGAIGGEMRIEGVDLDSSHPDRRIVEITREMGAEVRRIDGGIVVRSTGRLEGVEVDLSDSPDLVPTVAAMACFAEGVTRIENVGHLRYKEVDRLRALAAELPKFGVEVREGKDWLEIVGGEPVGARVDSRGDHRMAMALAVVGAFARGKTVVERADAVSISYPRFWEDLASVGVPVHSV
B6: grg21: EPSP synthase of Fusobacterium nucleatum (SEQ ID NO:8), synthetic gene in plasmid pAX723 (protein, listed as Fusobacterium nucleatum)
chain: MRNMNKKIIKADKLVGEVTPPPSKSVLHRYIIASSLAKGISKIENISYSDDIIATIEAMKKLGANIEKKDNYLLIDGSKTFDKEYLNNDSEIDCNESGSTLRFLFPLSIVKENKILFKGKGKLFKRPLSPYFENFDKYQIKCSSINENKILLDGELKSGVYEIDGNISSQFITGLLFSLPLLNGNSKIIIKGKLESSSYIDITLDCLNKFGINIINNSYKEFIIEGNQTYKSGNYQVEADYSQVAFFLVANSIGSNIKINGLNVNSLQGDKKIIDFISEIDNWTKNEKLILDGSETPDIIPILSLKACISKKEIEIVNIARLRIKESDRLSATVQELSKLGFDLIEKEDSILINSRKNFNEISNNSPISLSSHSDHRIAMTVAIASTCYEGEIILDNLDCVKKSYPNFWEVFLSLGGKIYEYLG

What was measured:
bacteria and plants = details: statement referring to earlier patent applications; cited from earlier work
E. coli cells = experiment: Growth of E. coli expressing EPSP synthase genes on M63 agar medium containing glyphosate; type: cell-based; details: for Glyphosate resistance conferred by expression in E. coli (summary in words): M63 agar, various concentrations of glyphosate, vs pAX701 glyphosate-sensitive control
Description: The coding sequence of the Clostridium acetobutylicum EPSP synthase gene (SEQ ID NO:5), identified in Genbank accession number NC—003030, was PCR amplified using the following primers: […] (upper) (SEQ ID NO:42) and […] (lower) (SEQ ID NO:43). The upper primer changed the start codon to ATG from TTG, as it naturally occurs. The resultant 1.3 kb product was digested with BamH I and Asc I, and ligated into the same sites of a modified version of pUC 18 and transformed into the E. coli strain DH5a. A positive clone containing the EPSP synthase insert was identified by restriction digest and named pAX714. A pAX714 colony was struck onto minimal M63 media containing IPTG, carbenicillin and 0, 20, 50 or 100 mM glyphosate, and the plates were incubated at 37° C. […] The encoded EPSP synthase (SEQ ID NO:6) was named grg10.
Plasmids pAX714 and pAX716, containing grg10 and grg20, respectively, were transformed into E. coli cells and streaked onto M63 agar medium containing IPTG, carbenicillin, and various concentrations of glyphosate. Colonies of pAX701 (containing the wild-type E. coli aroA gene) were used as glyphosate-sensitive controls.
Plasmids pAX723 and pAX72^4, containing grg21 and grg22, respectively, were transformed into E. coli cells and streaked onto M63 agar medium containing IPTG, carbenicillin, and various concentrations of glyphosate. Colonies of pAX701 (containing the wild-type E. coli aroA gene) were used as glyphosate-sensitive controls.

Row | Molecule | Glyphosate resistance or tolerance conferred on organisms (in words) (bacteria and plants) | Glyphosate resistance conferred by expression in E. coli (summary in words) (E. coli cells) | further results
1 | B1 | confers glyphosate tolerance |  | 
2 | B2 | confers glyphosate resistance upon both bacteria and plants |  | 
3 | B3 |  | confers resistance to high levels of glyphosate | 
4 | B4 |  | confers resistance to high levels of glyphosate | Glyphosate concentration to which the encoded EPSP synthase is resistant (E. coli cells; E. coli DH5a on minimal M63 media, 37° C.): at least 100 mM; Growth of pAX714-containing cells on glyphosate (E. coli cells; minimal M63 media with IPTG, carbenicillin and 0, 20, 50 or 100 mM glyphosate, 37° C.): grew very well on all concentrations of glyphosate tested
5 | B5 |  | confers resistance to high levels of glyphosate | 
6 | B6 |  | confers resistance to high levels of glyphosate | 
